Common to all, as to assay: peptide SPOT array, c-Myc-tagged receptor at 1 uM or 100 nM, anti-c-Myc-Cy3
One experiment addresses T1, Mcl-1, Q07820.
T1 chain: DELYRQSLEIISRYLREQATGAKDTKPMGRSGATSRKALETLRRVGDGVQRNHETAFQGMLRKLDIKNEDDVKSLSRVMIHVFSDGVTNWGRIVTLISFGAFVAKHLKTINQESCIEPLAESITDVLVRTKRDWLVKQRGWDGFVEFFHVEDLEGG

Another experiment concerns the target T2, Bcl-w, Q92843.
T2 chain: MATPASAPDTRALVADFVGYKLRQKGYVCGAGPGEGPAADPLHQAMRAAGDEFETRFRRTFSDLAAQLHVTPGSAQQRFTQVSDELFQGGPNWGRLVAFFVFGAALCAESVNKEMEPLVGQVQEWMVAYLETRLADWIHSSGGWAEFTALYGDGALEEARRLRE

The target in a further experiment is T3, Bfl-1, Q16548.
T3 chain: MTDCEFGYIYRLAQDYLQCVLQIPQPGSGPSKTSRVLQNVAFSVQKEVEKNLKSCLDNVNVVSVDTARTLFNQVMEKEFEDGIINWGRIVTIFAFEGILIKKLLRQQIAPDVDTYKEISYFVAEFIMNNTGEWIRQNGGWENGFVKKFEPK

In another experiment the target is Bcl-xL, Q07817.
Chain of Bcl-xL, Q07817 (Q07817 1-209): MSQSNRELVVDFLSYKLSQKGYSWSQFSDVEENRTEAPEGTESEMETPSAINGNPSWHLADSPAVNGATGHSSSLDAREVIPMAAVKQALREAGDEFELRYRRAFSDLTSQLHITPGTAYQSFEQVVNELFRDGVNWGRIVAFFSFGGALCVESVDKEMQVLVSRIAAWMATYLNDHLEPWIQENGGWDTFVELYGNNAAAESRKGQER
The target of the next experiment is Bcl-2, P10415.
Chain of Bcl-2, P10415 (P10415 1-217): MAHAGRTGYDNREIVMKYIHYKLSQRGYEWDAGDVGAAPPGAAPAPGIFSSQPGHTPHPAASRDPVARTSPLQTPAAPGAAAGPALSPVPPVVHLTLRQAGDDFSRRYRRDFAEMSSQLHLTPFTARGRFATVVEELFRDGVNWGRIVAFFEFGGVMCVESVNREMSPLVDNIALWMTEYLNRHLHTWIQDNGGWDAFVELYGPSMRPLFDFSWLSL

This passage reports SPOT signal as a fraction of Bim BH3's signal on the same receptor and array results from paper PMC4072508, “Genome-Wide Prediction and Validation of Peptides That Bind Human Prosurvival Bcl-2 Proteins” (PLoS Computational Biology, 2014).

CQGDTVISECLQRFADSLQEVVNYHM [ACAP3]: the SPOT signal as a fraction of Bim BH3's signal on the same receptor and array came out at 0.02 with Mcl-1, Q07820; 0.02 with Bcl-w, Q92843; 0.11 in the experiment with Bfl-1, Q16548; 0.02 with Bcl-xL, Q07817; 0.01 with Bcl-2, P10415.

As for RTNNYQLSDELRKNGVELTSLRQKVA [GRIPAP1], the SPOT signal as a fraction of Bim BH3's signal on the same receptor and array in the experiment with Mcl-1, Q07820 was 0.19; with Bcl-w, Q92843, 0.51; with Bfl-1, Q16548 it was 0.48; in the experiment with Bcl-xL, Q07817, 0.39; with Bcl-2, P10415, 0.14.

As for RAGELDRARELMRIGKRFGAVLEALE [CC2D1B], the SPOT signal as a fraction of Bim BH3's signal on the same receptor and array came out at 0.06 with Mcl-1, Q07820; 0.13 with Bcl-w, Q92843; 0.16 with Bfl-1, Q16548; 0.16 in the experiment with Bcl-xL, Q07817; 0.03 with Bcl-2, P10415.

For PRPLSILGNLLLLCSQDMLTSLTKLS [CYP2F1], the SPOT signal as a fraction of Bim BH3's signal on the same receptor and array with Mcl-1, Q07820 turned out to be 0.08; with Bcl-w, Q92843, 0.11; with Bfl-1, Q16548, 0.33; in the experiment with Bcl-xL, Q07817 it was 0.2; in the experiment with Bcl-2, P10415, 0.03.

Turning to YNLKSPAVKRLMKEAAELKDPTDHYH [UBE2J1], the SPOT signal as a fraction of Bim BH3's signal on the same receptor and array with Mcl-1, Q07820 worked out at 0.05; with Bcl-w, Q92843, 0.08; with Bfl-1, Q16548 it was 0.13; with Bcl-xL, Q07817, 0.19; in the experiment with Bcl-2, P10415, 0.03.

Turning to ASEASLFEEALEKYGKDFNDIRQDFL [MTA3], the SPOT signal as a fraction of Bim BH3's signal on the same receptor and array in the experiment with Mcl-1, Q07820 amounted to 0.02; in the experiment with Bcl-w, Q92843 it was 0.02; with Bfl-1, Q16548 it was 0.01; in the experiment with Bcl-xL, Q07817, 0.02; in the experiment with Bcl-2, P10415, 0.01.

For EQKLKQHVENLNQVAEKLEEKHSQIT [CCDC68], the SPOT signal as a fraction of Bim BH3's signal on the same receptor and array is 0.02 with Mcl-1, Q07820; 0.02 with Bcl-w, Q92843; 0.01 with Bfl-1, Q16548; 0.03 with Bcl-xL, Q07817; 0.01 in the experiment with Bcl-2, P10415.

Take SSTMGQVGRQLAIIGDDINRRYDSEF [BAK1]: the SPOT signal as a fraction of Bim BH3's signal on the same receptor and array with Mcl-1, Q07820 was found to be 0.84; in the experiment with Bcl-w, Q92843, 0.72; with Bfl-1, Q16548, 0.4; in the experiment with Bcl-xL, Q07817 it was 0.4; with Bcl-2, P10415 it was 0.27.

FDHMVPLVEEINRLADELNPLNASQE [C7orf26]: the SPOT signal as a fraction of Bim BH3's signal on the same receptor and array is 0.02 with Mcl-1, Q07820; 0.02 in the experiment with Bcl-w, Q92843; 0.01 in the experiment with Bfl-1, Q16548; 0.02 with Bcl-xL, Q07817; 0.01 in the experiment with Bcl-2, P10415.

Take DIDEGLYSRQLYVLGHEAMKRLQTSS [UBA1]: the SPOT signal as a fraction of Bim BH3's signal on the same receptor and array in the experiment with Mcl-1, Q07820 is 0.04; in the experiment with Bcl-w, Q92843 it was 0.03; in the experiment with Bfl-1, Q16548, 0.09; with Bcl-xL, Q07817, 0.05; with Bcl-2, P10415, 0.02.

LGHTGLACLFLKRGADLGARDSEGRD [ACAP1]: the SPOT signal as a fraction of Bim BH3's signal on the same receptor and array is 0.045 in the experiment with Mcl-1, Q07820; 0.1 in the experiment with Bcl-w, Q92843; 0.21 in the experiment with Bfl-1, Q16548; 0.14 with Bcl-xL, Q07817; 0.03 with Bcl-2, P10415.

In the case of GMTSEQVAQVLRNCGNSVRMLVARDP [INADL], the SPOT signal as a fraction of Bim BH3's signal on the same receptor and array with Mcl-1, Q07820 is 0.07; with Bcl-w, Q92843, 0.06; in the experiment with Bfl-1, Q16548, 0.15; with Bcl-xL, Q07817 it was 0.18; with Bcl-2, P10415, 0.04.

Turning to DFMGRTFAKPLVKMADEAYCPPRFPP [OTOF], the SPOT signal as a fraction of Bim BH3's signal on the same receptor and array was determined as 0.1 with Mcl-1, Q07820; 0.14 with Bcl-w, Q92843; 0.1 in the experiment with Bfl-1, Q16548; 0.26 in the experiment with Bcl-xL, Q07817; 0.06 in the experiment with Bcl-2, P10415.

For ASEANLFEEALEKYGKDFTDIQQDFL [MTA1], the SPOT signal as a fraction of Bim BH3's signal on the same receptor and array with Mcl-1, Q07820 was determined as 0.03; in the experiment with Bcl-w, Q92843, 0.02; in the experiment with Bfl-1, Q16548, 0.01; with Bcl-xL, Q07817, 0.03; in the experiment with Bcl-2, P10415 it was 0.01.

KCRHEEVVQVLRNAGEEVTLTVSFLK [SNTG1]: the SPOT signal as a fraction of Bim BH3's signal on the same receptor and array with Mcl-1, Q07820 is 0.02; with Bcl-w, Q92843, 0.01; with Bfl-1, Q16548, 0.02; with Bcl-xL, Q07817, 0.02; with Bcl-2, P10415, 0.01.

Consider EKNLPKMAEALAHGADVNWANSEENK [ACAP2], for which the SPOT signal as a fraction of Bim BH3's signal on the same receptor and array with Mcl-1, Q07820 came to 0.02; in the experiment with Bcl-w, Q92843, 0.01; in the experiment with Bfl-1, Q16548 it was 0.01; with Bcl-xL, Q07817, 0.02; with Bcl-2, P10415, 0.01.

Consider ASGNKEMIEALKQYAMDYSNKALEKG [IFIT3], for which the SPOT signal as a fraction of Bim BH3's signal on the same receptor and array with Mcl-1, Q07820 turned out to be 0.03; with Bcl-w, Q92843 it was 0.04; with Bfl-1, Q16548, 0.04; with Bcl-xL, Q07817 it was 0.06; with Bcl-2, P10415, 0.01.

With DSLAKFAGRKLKDCGEDLLVEISEVL [PCM1], the SPOT signal as a fraction of Bim BH3's signal on the same receptor and array with Mcl-1, Q07820 turned out to be 0.02; with Bcl-w, Q92843, 0.02; with Bfl-1, Q16548 it was 0.01; with Bcl-xL, Q07817, 0.02; with Bcl-2, P10415, 0.01.

With TCLNRGFSRLLDNMAEFFRPTEQDLQ [PEX3], the SPOT signal as a fraction of Bim BH3's signal on the same receptor and array was found to be 0.04 with Mcl-1, Q07820; 0.03 in the experiment with Bcl-w, Q92843; 0.04 with Bfl-1, Q16548; 0.06 in the experiment with Bcl-xL, Q07817; 0.02 in the experiment with Bcl-2, P10415.
